The source of these data is article PMC10807245, “A functional and structural comparative analysis of large tumor antigens reveals evolution of different importin α‐dependent nuclear localization signals” (Protein Science : A Publication of the Protein Society, 2024).

First the molecules themselves.
T1: human importin α3 lacking the IBB domain (IMPα3ΔIBB) (human, UniProt O00629 64-521)
T1 sequence (looked up): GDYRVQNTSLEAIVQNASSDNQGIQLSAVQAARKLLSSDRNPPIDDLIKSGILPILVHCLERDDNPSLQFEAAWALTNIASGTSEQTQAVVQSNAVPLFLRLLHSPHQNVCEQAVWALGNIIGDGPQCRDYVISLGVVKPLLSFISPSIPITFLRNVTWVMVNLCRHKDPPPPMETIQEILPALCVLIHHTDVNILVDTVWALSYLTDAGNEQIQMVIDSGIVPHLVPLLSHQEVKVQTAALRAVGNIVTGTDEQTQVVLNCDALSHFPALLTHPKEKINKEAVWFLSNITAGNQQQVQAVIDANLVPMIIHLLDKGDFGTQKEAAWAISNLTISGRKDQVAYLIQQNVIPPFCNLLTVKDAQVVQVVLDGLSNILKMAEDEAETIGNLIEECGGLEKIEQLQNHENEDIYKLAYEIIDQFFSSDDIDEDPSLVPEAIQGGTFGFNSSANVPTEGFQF

B1: JCPyV LTA NLS peptide (peptide)
peptide: {FITC′-Ahx}-MFASDDENTGSQHSTPPKKKKKV
notes: also called JCPyV LTA cNLS; JCPyV LTA monopartite cNLS
B2: KIPyV LTA NLSbip peptide (peptide)
peptide: {FITC′-Ahx}-KRSAPEEEPSCSQATPPKKKHA
notes: also called KIPyV LTA cNLS; KIPyV LTA bipartite cNLS
B3: WUPyV LTA NLSbip peptide (peptide)
peptide: {FITC′-Ahx}-KRTREDDEEPQCSQATPPKKKKD
notes: also called WUPyV LTA cNLS; WUPyV LTA bipartite cNLS
B4: MWPyV LTA NLSbip peptide (peptide)
peptide: {FITC′-Ahx}-PKKRPRESSSNSTCTPPKRPRNF
notes: also called MWPyV LTA cNLS; MWPyV LTA bipartite cNLS
B5: MCPyV LTA NLSbip peptide (peptide)
peptide: {FITC′-Ahx}-PFSRKRKFGGSRSSASSASSASFTSTPPKPKKNRE
notes: also called MCPyV LTA cNLS; bipartite MCPyV LTA NLS; source: synthetic peptide (solid phase, HPLC purified)
B6: STLPyV LTA NLSbip peptide (peptide)
peptide: {FITC′-Ahx}-KRKFPDSSTQNSTPPKKNKPA
notes: also called STLPyV LTA cNLS; STLPyV LTA bipartite cNLS

Primed or numbered codes have the meaning given here. Where no end group is shown, it is not given here. FITC′ = fluorescein isothiocyanate; Ahx = NCCCCCC(=O)O

The target in the first assay is T2, mouse importin α2 lacking the IBB domain (IMPα2ΔIBB) (mouse, UniProt P52293 70-529). Description: crystal structure. As to conditions: both partners purified.
As for B1, the binding result was “binds”.

The next assay deals with T3, human importin α1 lacking the IBB domain (IMPα1ΔIBB) (human, UniProt P52292 70-529). Description: fluorescence polarisation; two-fold dilutions of IMPαΔIBB titrated against FITC-cNLS peptide in tris-buffered saline, 200 μL; one site specific binding fit; triplicate. The settings on record: both partners purified. Background: Fluorescence polarisation rises when a labelled molecule tumbles more slowly, as on binding a larger partner.
What is called Kd is a measure of binding affinity in units of concentration. Molecule B1 returned a Kd of 76 to 270 nM.

The next assay has as its target T2, mouse importin α2 lacking the IBB …. In words: native gel or EMSA; 1.5% agarose gel in TB buffer (0.45 mM tris, 0.45 mM boric acid, pH 8.5), 70 V for 2 h; IMPαΔIBB ± FITC-cNLS peptide; UV image for the peptide, Coomassie for the protein. The settings on record: both partners purified. On the technique in general: Mobility shift assays separate free from complexed probe on a gel.
On to B2, for which the binding result is listed as “binds”.

With B3, the binding result is “binds”.

B4: the binding result is “binds”.

B5: the binding result is reported as “binds”.

For the molecule B6, the binding result is “binds”.

For the molecule {FITC′}-PFSRKRKFGGS [MCPyV LTA NLSm peptide], the binding result is listed as “binds”.

The next assay has as its target T3, human importin α1 lacking the IBB …. The description is as above. The settings on record: both partners purified.
Turning to B2, the binding result is “binds”.

On to B3, for which the binding result was “binds”.

For the molecule B4, the binding result is given as “binds”.

B5: the binding result is reported as “binds”.

Consider B6, for which the binding result is recorded as “binds”.

Another assay has as its target T1, human importin α3 lacking the IBB …. The description is as above. The settings on record: both partners purified.
Consider B1, for which the binding result is listed as “binds”.

Take B2: the binding result is reported as “binds”.

With B3, the binding result was “binds”.

Take B4: the binding result is listed as “binds”.

For the molecule B5, the binding result was “binds”.

For B6, the binding result is “binds”.

The target in another assay is human importin α5 lacking the IBB domain (IMPα5ΔIBB) (human, UniProt P52294 73-538). The assay is described as above. As to conditions: both partners purified.
Sequence of human importin α5 lacking the IBB domain (IMPα5ΔIBB) (P52294 73-538, stated change not applied): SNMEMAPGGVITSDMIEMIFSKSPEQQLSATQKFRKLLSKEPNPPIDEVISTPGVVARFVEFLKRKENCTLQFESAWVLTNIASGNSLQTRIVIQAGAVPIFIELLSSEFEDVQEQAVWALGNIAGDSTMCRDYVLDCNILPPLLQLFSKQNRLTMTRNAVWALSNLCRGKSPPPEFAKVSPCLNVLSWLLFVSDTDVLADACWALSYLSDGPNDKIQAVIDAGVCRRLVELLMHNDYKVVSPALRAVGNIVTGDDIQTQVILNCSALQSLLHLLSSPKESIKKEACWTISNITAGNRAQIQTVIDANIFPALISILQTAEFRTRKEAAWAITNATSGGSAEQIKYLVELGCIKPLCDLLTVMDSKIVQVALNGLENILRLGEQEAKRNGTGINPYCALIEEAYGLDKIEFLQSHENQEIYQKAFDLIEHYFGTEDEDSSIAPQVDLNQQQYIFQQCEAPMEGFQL
Consider B1, for which the binding result is “binds”.

Regarding B2, the binding result is recorded as “binds”.

With B3, the binding result is reported as “binds”.

In the case of B4, the binding result is on record as “binds”.

As to B5, the binding result is reported as “binds”.

B6: the binding result was “binds”.

The target of a further assay is human importin α7 lacking the IBB domain (IMPα7ΔIBB) (human, UniProt O60684 73-536). The description is as above. As to conditions: both partners purified.
Sequence of human importin α7 lacking the IBB domain (IMPα7ΔIBB) (O60684 73-536, stated change not applied): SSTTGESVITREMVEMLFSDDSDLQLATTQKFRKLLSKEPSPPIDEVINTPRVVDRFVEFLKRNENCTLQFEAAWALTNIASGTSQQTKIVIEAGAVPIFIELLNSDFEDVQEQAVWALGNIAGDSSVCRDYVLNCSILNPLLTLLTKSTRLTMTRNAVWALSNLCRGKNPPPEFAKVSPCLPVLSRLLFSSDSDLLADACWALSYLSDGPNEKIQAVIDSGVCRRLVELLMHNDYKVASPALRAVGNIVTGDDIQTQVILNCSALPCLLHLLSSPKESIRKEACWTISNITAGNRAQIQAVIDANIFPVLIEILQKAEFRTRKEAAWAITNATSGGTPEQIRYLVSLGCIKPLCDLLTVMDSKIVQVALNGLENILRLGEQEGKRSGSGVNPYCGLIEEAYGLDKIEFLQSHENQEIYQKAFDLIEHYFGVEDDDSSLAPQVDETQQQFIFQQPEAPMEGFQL
On to B1, for which the binding result is given as “binds”.

Take B2: the binding result is listed as “binds”.

With B3, the binding result is given as “binds”.

Consider B4, for which the binding result is “binds”.

Turning to B5, the binding result is reported as “binds”.

For the molecule B6, the binding result is listed as “binds”.
